Results as given in patent publication US12295987B2, “Method of using a GIP/GLP1 co-agonist for diabetes” (Eli Lilly and Company, priority 2018, dated 2025).

Target: T1, human gastric inhibitory peptide receptor (hGIPR) (Homo sapiens, UniProt P48546)
T1 construct: expressed in transfected cells; host or cells: HEK293
T1 sequence (P48546 22-466): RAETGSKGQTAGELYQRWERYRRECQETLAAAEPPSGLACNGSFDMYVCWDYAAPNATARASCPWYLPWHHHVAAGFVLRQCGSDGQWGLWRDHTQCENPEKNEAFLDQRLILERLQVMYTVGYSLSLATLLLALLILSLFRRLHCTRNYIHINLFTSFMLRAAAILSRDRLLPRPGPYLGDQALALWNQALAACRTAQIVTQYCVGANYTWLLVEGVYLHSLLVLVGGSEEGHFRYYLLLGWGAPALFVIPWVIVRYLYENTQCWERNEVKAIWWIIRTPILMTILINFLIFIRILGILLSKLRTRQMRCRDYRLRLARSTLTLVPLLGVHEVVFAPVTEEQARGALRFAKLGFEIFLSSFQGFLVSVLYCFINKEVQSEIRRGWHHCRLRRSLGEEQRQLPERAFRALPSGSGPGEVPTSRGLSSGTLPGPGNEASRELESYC
Experiment: cAMP pharmacological functional assay in presence of 0.1% casein, hGIPR
Assay type: cell-based
Settings: ratio of hGIPR to hGLP1R cAMP EC50 ratios

Substance | [hGIPR/hGLP1R] EC50 Ratio
Y-Aib-EGT-αMeF(2F)-TSDYSI-Aib-LDEK((2-[2-(2-Amino-ethoxy)-ethoxy]-acetyl)2-(γGlu)-CO—(CH2)18—CO2H)AQ-Aib-EFI-(D-Glu)-YLIEGGPSSGAPPPS-NH2 (YXEGTXTSDYSIXLDEKAQXEFIXYLIEGGPSSGAPPPS; Aib, αMeF(2F), D-Glu; lipidated K; amide; (2)..(2) Xaa at position 2 is Aib; (6)..(6) Xaa at position 6 is alpha-methyl-Phe(2F); (13)..(13) Xaa at position 13 is Aib; MOD_RES (17)..(17) Lys at position 17 is chemically modified by conjugation of the epsilon-amino group of the Lys side chain with (2-[2-(2-amino-ethoxy)-ethoxy]-acetyl)2-(gamma-Glu)-CO-(CH2)18- CO2H; (20)..(20) Xaa at position 20 is Aib; (24)..(24) Xaa at position 24 is D-Gl) [Peptide 224] | 3.32
Y-Aib-EGT-αMeF(2F)-TSDYSI-Nle-LD-Orn-K((2-[2-(2-Amino-ethoxy)-ethoxy]-acetyl)2-(γGlu)-CO—(CH2)16—CO2H)AQ-Aib-EFI-(D-Glu)-YLIEGGPSSGAPPPS-NH2 (YXEGTXTSDYSIXLDXKAQXEFIXYLIEGGPSSGAPPPS; Aib, Nle, Orn, αMeF(2F), lipidated Lys, D-Glu, amide; (2)..(2) Xaa at position 2 is Aib; (6)..(6) Xaa at position 6 is alpha-methyl-Phe(2F); (13)..(13) Xaa at position 13 is Nle; (16)..(16) Xaa at position 16 is Orn; MOD_RES (17)..(17) Lys at position 17 is chemically modified by conjugation of the epsilon-amino group of the Lys side chain with (2-[2-(2-amino-ethoxy)-ethoxy]-acetyl)2-(gamma-Glu)-CO-(CH2)16- CO2H; (20)..(20) Xaa at position 20 is Aib;) [Peptide 249] | 4.94
Y-Aib-EGT-αMeF(2F)-TSDYSI-αMeL-LD-Dab-K((2-[2-(2-Amino-ethoxy)-ethoxy]-acetyl)2-(γGlu)-CO—(CH2)16—CO2H)AQ-Aib-EFI-(D-Glu)-YLIEGGPSSGAPPPS-NH2 (YXEGTXTSDYSIXLDXKAQXEFIXYLIEGGPSSGAPPPS; Aib, αMeF(2F), αMeL, Dab, D-Glu; lipidated K; amide; (2)..(2) Xaa at position 2 is Aib; (6)..(6) Xaa at position 6 is alpha-methyl-Phe(2F); (13)..(13) Xaa at position 13 is alpha-methyl-Leu; (16)..(16) Xaa at position 16 is Dab; MOD_RES (17)..(17) Lys at position 17 is chemically modified by conjugation of the epsilon-amino group of the Lys side chain with (2-[2-(2-amino-ethoxy)-ethoxy]-acetyl)2-(gamma-Glu)-CO-(CH2)16- CO2H; (20)..(20) Xaa at positi) [Peptide 209] | 5.12
Y-Aib-EGT-αMeF(2F)-TSDYSI-αMeL-LD-Dab-K((2-[2-(2-Amino-ethoxy)-ethoxy]-acetyl)2-(γGlu)-CO—(CH2)18—CO2H)AQ-Aib-EFI-(D-Glu)-YLIEGGPSSGAPPPS-NH2 (YXEGTXTSDYSIXLDXKAQXEFIXYLIEGGPSSGAPPPS; Aib, αMeF(2F), αMeL, Dab, D-Glu; lipidated K; amide; (2)..(2) Xaa at position 2 is Aib; (6)..(6) Xaa at position 6 is alpha-methyl-Phe(2F); (13)..(13) Xaa at position 13 is alpha-methyl-Leu; (16)..(16) Xaa at position 16 is Dab; MOD_RES (17)..(17) Lys at position 17 is chemically modified by conjugation of the epsilon-amino group of the Lys side chain with (2-[2-(2-amino-ethoxy)-ethoxy]-acetyl)2-(gamma-Glu)-CO-(CH2)18- CO2H; (20)..(20) Xaa at positi) [Peptide 217] | 2.99
Y-Aib-EGT-αMeF(2F)-TSDYSI-αMeL-LD-Dap-K((2-[2-(2-Amino-ethoxy)-ethoxy]-acetyl)2-(γGlu)-CO—(CH2)16—CO2H)AQ-Aib-EFI-(D-Glu)-YLIEGGPSSGAPPPS-NH2 (YXEGTXTSDYSIXLDXKAQXEFIXYLIEGGPSSGAPPPS; Aib, αMeF(2F), αMeL, Dap, D-Glu; lipidated K; amide; (2)..(2) Xaa at position 2 is Aib; (6)..(6) Xaa at position 6 is alpha-methyl-Phe(2F); (13)..(13) Xaa at position 13 is alpha-methyl-Leu; (16)..(16) Xaa at position 16 is Dap; MOD_RES (17)..(17) Lys at position 17 is chemically modified by conjugation of the epsilon-amino group of the Lys side chain with (2-[2-(2-amino-ethoxy)-ethoxy]-acetyl)2-(gamma-Glu)-CO-(CH2)16- CO2H; (20)..(20) Xaa at positi) [Peptide 210] | 5.24
Y-Aib-EGT-αMeF(2F)-TSDYSI-αMeL-LD-Dap-K((2-[2-(2-Amino-ethoxy)-ethoxy]-acetyl)2-(γGlu)-CO—(CH2)18—CO2H)AQ-Aib-EFI-(D-Glu)-YLIEGGPSSGAPPPS-NH2 (YXEGTXTSDYSIXLDXKAQXEFIXYLIEGGPSSGAPPPS; Aib, αMeF(2F), αMeL, Dap, D-Glu; lipidated K; amide; (2)..(2) Xaa at position 2 is Aib; (6)..(6) Xaa at position 6 is alpha-methyl-Phe(2F); (13)..(13) Xaa at position 13 is alpha-methyl-Leu; (16)..(16) Xaa at position 16 is Dap; MOD_RES (17)..(17) Lys at position 17 is chemically modified by conjugation of the epsilon-amino group of the Lys side chain with (2-[2-(2-amino-ethoxy)-ethoxy]-acetyl)2-(gamma-Glu)-CO-(CH2)18- CO2H; (20)..(20) Xaa at positi) [Peptide 218] | 4.34
Y-Aib-EGT-αMeF(2F)-TSDYSI-αMeL-LD-Orn-K((2-[2-(2-Amino-ethoxy)-ethoxy]-acetyl)2-(γGlu)-CO—(CH2)16—CO2H)AQ-Aib-EFI (D-Glu)-αMeY-LIEGGPSSGAPPPS-NH2 (YXEGTXTSDYSIXLDXKAQXEFIXXLIEGGPSSGAPPPS; Aib, Orn, αMe residues, lipidated Lys, D-Glu, amide; (2)..(2) Xaa at position 2 is Aib; (6)..(6) Xaa at position 6 is alpha-methyl-Phe(2F); (13)..(13) Xaa at position 13 is alpha-methyl-Leu; (16)..(16) Xaa at position 16 is Orn; MOD_RES (17)..(17) Lys at position 17 is chemically modified by conjugation of the epsilon-amino group of the Lys side chain with (2-[2-(2-amino-ethoxy)-ethoxy]-acetyl)2-(gamma-Glu)-CO-(CH2)16- CO2H; (20)..(20) Xaa at positi) [Peptide 236] | 4.10
Y-Aib-EGT-αMeF(2F)-TSDYSI-αMeL-LD-Orn-K((2-[2-(2-Amino-ethoxy)-ethoxy]-acetyl)2-(γGlu)-CO—(CH2)16—CO2H)AQ-Aib-EFI-(D-Glu)-YLIEGGPSSGAPPPS-NH2 (YXEGTXTSDYSIXLDXKAQXEFIXYLIEGGPSSGAPPPS; Aib, Orn, αMe residues, lipidated Lys, D-Glu, amide; (2)..(2) Xaa at position 2 is Aib; (6)..(6) Xaa at position 6 is alpha-MeF(2F); (13)..(13) Xaa at position 13 is alpha-MeL; (16)..(16) Xaa at position 16 is Orn; MOD_RES (17)..(17) K at position 17 is chemically modified by conjugation of the epsilon-amino group of the K side chain with (2-[2-(2-amino-ethoxy)-ethoxy]-acetyl)2-(gamma-Glu)-CO-(CH2)16- CO2H; (20)..(20) Xaa at position 20 is Aib; (24)) [Peptide 2] | 6.63
Y-Aib-EGT-αMeF(2F)-TSDYSI-αMeL-LD-Orn-K((2-[2-(2-Amino-ethoxy)-ethoxy]-acetyl)2-(γGlu)-CO—(CH2)18—CO2H)AQ-Aib-EFI-(D-Glu)-YLIEGGPSSGAPPPS-NH2 (YXEGTXTSDYSIXLDXKAQXEFIXYLIEGGPSSGAPPPS; Aib, Orn, αMe residues, lipidated Lys, D-Glu, amide; (2)..(2) Xaa at position 2 is Aib; (6)..(6) Xaa at position 6 is alpha-MeF(2F); (13)..(13) Xaa at position 13 is alpha-MeL; (16)..(16) Xaa at position 16 is Orn; MOD_RES (17)..(17) K at position 17 is chemically modified by conjugation of the epsilon-amino group of the K side chain with (2-[2-(2-amino-ethoxy)-ethoxy]-acetyl)2-(gamma-Glu)-CO-(CH2)18- CO2H; (20)..(20) Xaa at position 20 is Aib; (24)) [Peptide 3] | 3.61
